Reference: patent US20100151524A1 (DARWIN DISCOVERY, published 2010)
Values belong to the molecule of their own block, whether it stands above or below them.

T1: FLAG epitope-tagged Beer (human Beer, secretion signal removed, C-terminal FLAG tag, from … (human, UniProt Q9BQB4 24-213))
T1 construct: also called FLAG-Beer; H. Beer
T1 sequence: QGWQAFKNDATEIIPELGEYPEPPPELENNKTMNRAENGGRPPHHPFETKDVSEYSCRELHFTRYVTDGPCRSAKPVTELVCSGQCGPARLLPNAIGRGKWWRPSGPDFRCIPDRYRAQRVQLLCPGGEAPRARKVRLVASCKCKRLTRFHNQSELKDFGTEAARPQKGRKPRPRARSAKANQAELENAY

T2: sclerostin (coated on the ELISA surface, Example 12) (Homo sapiens (Human), UniProt Q9BQB4 24-213)
T2 construct: also called SOST; Beer
T2 sequence: T1 sequence

B1: recombinant human BMP-5 protein (R&D systems) (ligand, UniProt P22003 317-454, looked up)
chain: AANKRKNQNRNKSSSHQDSSRMSSVGDYNTSEQKQACKKHELYVSFRDLGWQDWIIAPEGYAAFYCDGECSFPLNAHMNATNHAIVQTLVHLMFPDHVPKPCCAPTKLNAISVLYFDDSSNVILKKYRNMVVRSCGCH
notes: Commercial protein
B2: BMP-6 (ligand, UniProt P22004 382-513, looked up)
chain: QQSRNRSTQSQDVARVSSASDYNSSELKTACRKHELYVSFQDLGWQDWIIAPKGYAANYCDGECSFPLNAHMNATNHAIVQTLVHLMNPEYVPKPCCAPTKLNAISVLYFDDNSNVILKKYRNMVVRACGCH
B3: BMP receptor II-FC fusion protein (Fc fusion)
chain: SQNQERLCAFKDPYQQDLGIGESRISHENGTILCSKGSTCYGLWEKSKGDINLVKQGCWSHIGDPQECHYEECVVTTTPPSIQNGTYRFCCCSTDLCNVNFTENFPPPDTTPLSPPHSFNRDET
notes: also called BMPR-II; type II receptor; not shown: Fc part and any linker
B4: BMP-4 (ligand, UniProt P12644 293-408, looked up)
chain: SPKHHSQRARKKNKNCRRHSLYVDFSDVGWNDWIVAPPGYQAFYCHGDCPFPLADHLNSTNHAIVQTLVNSVNSSIPKACCVPTELSAISMLYLDEYDKVVLKNYQEMVVEGCGCR

Experiments:
[1] = biological target: B2; test: ELISA-based competition: sclerostin coated, BMP-6, DAN titrated; competitor sclerostin
[2] = biological target: B2; test: ELISA-based competition: sclerostin coated (300 ng/well), BMP-6 11 nM, receptor-FC titrated; competitor sclerostin
[3] = biological target: B2; test: ELISA-based competition: sclerostin coated, BMP-6 11 nM; competitor sclerostin
[4] = biological target: T1, FLAG epitope-tagged Beer (human Beer, …); test: Beer ligand binding assay (FLAG-Beer captured on an anti-FLAG plate, BMP-5 titrated, ELISA detection), FIG. 6
Procedure: FLAG-Beer protein (20 ng) is added to 100 ul PBS/0.2% BSA and adsorbed into each well of 96 well microtiter plate previously coated with anti-FLAG monoclonal antibody (Sigma; St Louis Mo.) and blocked with 10% BSA in PBS. This is conducted at room temperature for 60 minutes. This protein solution is removed and the wells are washed to remove unbound protein. BMP-5 is added to each well in concentrations ranging from […] to 500 nM in PBS/0.2% BSA and incubated for 2 hours at room temperature. The binding solution is removed and the plate washed with three times with 200 ul volumes of PBS/0.2% BSA. BMP-5 levels are then detected using BMP-5 anti-serum via ELISA (F. M. Ausubel et al (1998) Current Protocols in Mol. Biol. Vol 2 11.2.1-11.2.22). Specific binding is calculated by subtracting non-specific binding from total binding and analyzed by the LIGAND program (Munson and Podbard, Anal. Biochem., 107, p 220-239, (1980).

[5] = biological target: T2, sclerostin (coated on the ELISA …); test: ELISA, sclerostin-coated surface (300 ng/well), BMP-6 in solution
Procedure: (§1) A 10-fold molar excess of the BMP receptor was sufficient to reduce binding of sclerostin to BMP-6 by approximately 50%. This competition was also observed with a BMP receptor II-FC fusion protein (IC₅₀=36 nM) and DAN (IC₅₀=43 nM).

[6] = biological target: B2; test: ELISA-based competition: sclerostin coated, BMP-6, receptor-FC titrated; competitor sclerostin
Procedure: as §1

[7] = biological target: T1, FLAG epitope-tagged Beer (human Beer, …); test: anti-FLAG immunoprecipitation of FLAG-tagged Beer incubated with BMP-4, anti-BMP-4 western blot; Cerberus with BMP-4 as positive control on the left part
Procedure: The interaction of Beer with proteins from different phylogenetic arms of the TGF-β superfamily were studied using immunoprecipitation methods. Purified TGFβ-1, TGFβ-2, TGFβ-3, BMP-4, BMP-5, BMP-6 and GDNF were obtained from commerical sources (R&D systems; Minneapolis, Minn.). A representative protocol is as follows. Partially purified Beer was dialyzed into HEPES buffered saline (25 mM HEPES 7.5, 150 mM NaCl). Immunoprecipitations were done in 300 ul of IP buffer (150 mM NaCl, 25 mM Tris pH 7.5, 1 mM EDTA, 1.4 mM β-mercaptoethanol, 0.5% triton×100, and 10% glycerol). […] The proteins were resolved by SDS PAGE and Beer associated BMP-5 was detected by western blot using anti-BMP-5 antiserum (Research Diagnostics, Inc) (see FIG. 5).

IC50 [1]: 0.043 µM
Molecule: DAN (competitor in Example 12)

IC50 [2]: 0.114 µM
reduction of binding of sclerostin to BMP-6 at a 10-fold molar excess of receptor [3]: 50%
Molecule: BMP receptor IA (FC fusion construct)

Molecule: B1
Kd [4]: 0.015 to 0.03 µM

Molecule: B2
Kd [5]: 0.0034 µM

Molecule: B3
IC50 [6]: 0.036 µM

Molecule: B4
binding result [7]: no binding
